B1: IgG4 4784: monoclonal human anti-LINGO-1 IgG4 antibody; VL SEQ ID NO: 4, VH SEQ ID NO: 5 (antibody, V domains shown)
VH: QVQLKESGPALVKPTQTLTLTCTFSGFSLSSSGVGVGWIRQPPGKALEWLAHIGSDDDKYYSTSLKTRLTISKDTSKNQVVLTMTNMDPVDTATYYCARNQQYGDGYPGYFDYWGQGTLVTVSS
VL: DIELTQPPSVSVAPGQTARISCSGDNIGNYYVYWYQQKPGQAPVLVIYEDTNRPSGIPERFSGSNSGNTATLTISGTQAEDEADYYCQSYDNLHEQVFGGGTKLTVLG
modifications: IgG4; 4784 VH; 4784 VL
B2: IgG4 4785: monoclonal human anti-LINGO-1 IgG4 antibody; VL SEQ ID NO: 6, VH SEQ ID NO: 7 (antibody, V domains shown)
VH: QVQLQQSGPGLVKPSQTLSLTCAISGDSVSDNSAAWSWIRQSPGRGLEWLGLIYLRSKWDNDYAVSVKSRITINPDTSKNQFSLQLNSVTPEDTAVYYCARTGRADEFDVWGQGTLVTVSS
VL: DIVLTQPPSVSGAPGQRVTISCSGSSSNIGNNYVSWYQQLPGTAPKLLISRNSKRPSGVPDRFSGSKSGTSASLAITGLQSEDEADYYCSTYDTFSIVFGGGTKLTVLG
modifications: IgG4; 4785 VH; 4785 VL

Tested on: binding of LINGO-1 to NgR
Sequence (as listed by the source): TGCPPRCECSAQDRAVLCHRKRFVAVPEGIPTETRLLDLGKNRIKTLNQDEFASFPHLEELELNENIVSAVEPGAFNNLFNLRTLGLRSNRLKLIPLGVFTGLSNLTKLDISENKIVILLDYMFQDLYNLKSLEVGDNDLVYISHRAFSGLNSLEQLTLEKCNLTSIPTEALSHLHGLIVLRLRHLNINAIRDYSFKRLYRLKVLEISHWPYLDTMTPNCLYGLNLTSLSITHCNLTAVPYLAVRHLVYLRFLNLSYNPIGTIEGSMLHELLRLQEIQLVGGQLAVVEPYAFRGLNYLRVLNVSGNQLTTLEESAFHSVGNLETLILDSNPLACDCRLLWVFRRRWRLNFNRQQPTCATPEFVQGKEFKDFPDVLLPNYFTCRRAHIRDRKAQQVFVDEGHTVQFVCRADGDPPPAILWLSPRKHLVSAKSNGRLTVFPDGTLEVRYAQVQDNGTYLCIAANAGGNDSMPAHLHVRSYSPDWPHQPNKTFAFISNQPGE
Assay: AP-LINGO-1 binding assay (AP-LINGO-1 binding to NgR:SH-SY5Y cells)
Set-up: species or system rat
Details: 2 μM Fab, 1 nM AP-LINGO-1; normalized to control Fab 3207; p<0.01 (FIG. 1)
Description: NgR:SH-SY5Y cells in suspension are incubated with either 1 nM AP or AP-LINGO-1 in the absence or presence of 2 μM of the indicated anti-LINGO-1 Fab or anti-hen lysozyme Fab 3207. Bound AP activity on the cells is measured as absorbance at 405 nm after a 30 min incubation with 1-Step™ PNPP. The specific binding of AP-LINGO-1 is calculated as the difference between the total amount of AP-LINGO-1 binding and the amount of binding with AP alone. The mean percentage inhibition of specific binding (n=3, ±STD) is calculated as the percentile difference between the amount of specific binding of AP-LINGO-1 in the presence of Fab 3207 and the presence of an anti-LINGO-1 Fab.
The PCR product is cleaved with XhoI and XbaI and inserted into the respective sites of the vector APtag-5-NHIS (SEQ ID NO: 26) to generate APtag-5-NHIS-solrLINGO-1. The predicted protein product is the majority of the rat LINGO-1 ectodomain fused at the N-terminus to residues 23-511 of human placental alkaline phosphatase via a 3 amino acid residue linker. […] AP activity of the concentrated supernatant is measured using 1-Step™ PNPP (Pierce) as change in absorbance at 405 nm over time and transformed to a concentration using the following equation (applies for a 96 well plate format with 200 μl PNPP/well): […]

Row | Molecule | inhibition of specific AP-LINGO-1 binding to NgR:SH-SY5Y cells
1 | B1 | significantly inhibit
2 | B2 | significantly inhibit
